Changes are numbered by the printed parent chain.

This experiment concerns the target T1, human TROP2 (purified recombinant antigen, Acro Biosystems Cat #TR2-H5223) (human, UniProt P09758 27-274).
T1 construct: Bought recombinant protein; also called huTROP2
T1 sequence: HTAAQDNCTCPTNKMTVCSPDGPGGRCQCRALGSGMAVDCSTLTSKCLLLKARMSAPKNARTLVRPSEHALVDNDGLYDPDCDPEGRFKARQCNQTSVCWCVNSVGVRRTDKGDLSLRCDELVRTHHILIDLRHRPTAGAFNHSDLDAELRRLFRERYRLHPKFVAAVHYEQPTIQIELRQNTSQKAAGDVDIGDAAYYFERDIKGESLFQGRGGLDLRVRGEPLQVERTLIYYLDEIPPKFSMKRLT
As to the kind of experiment: SPR (Carterra LSA), antibody captured through human Fc, huTROP2 as analyte; KD plotted for each VH/VL combination.

B1: 589-VH_2 + 589-VL_1 (antibody, V domains shown)
VH: QVQLLESGGGLVKPGGSLRLSCAASGFDFIDYDMFWIRQAPGKGLEWVGVINRSGSYTNYAPAVKGRATISRDNAKNSMYLQMNSLRAEDTAVYYCARGACTHCWDADSAGYIDAWGQGTLVTVSS
VL: SYELTQPPSVSVSPGQTASITCSGSSGSYGWYQQKPGQSPVLVIYSSDKRPSGIPERFSGSNSGNTATLTISGTQAMDEADYYCGGYDGSTDVGIFGGGTKLTVL
Regarding B1, the binding result is recorded as “binds”.

B2: 589-VH_2 + 589-VL_4 (antibody, V domains shown)
VH: B1 VH
VL: ALALTQPSSVSANPGGTVKITCSGSSGSYGWHQQKSPGSAPVTVIYSSDKRPSDIPSRFSGALSGSTATLTITGVRAEDEAVYYCGGYDGSTDVGIFGAGTTLTVL
With B2, the binding result was “binds”.

B3: 589-VH_5 + 589-VL_1 (antibody, V domains shown)
VH: AVTLDESGGGLQTPGGGLSLVCKASGFDFIDYDMFWVRQAPGKGLEWVGVINRSGSYTNYAPAVKGRATISRDNGQSTMRLQLNNLRAEDTGTYYCARGACTHCWDADSAGYIDAWGHGTEVIVSS
VL: B1 VL
notes: parental VH with humanized VL
With B3, the binding result was “binds”.

B4: 589-VH_3 + 589-VL_2 (antibody, V domains shown)
VH: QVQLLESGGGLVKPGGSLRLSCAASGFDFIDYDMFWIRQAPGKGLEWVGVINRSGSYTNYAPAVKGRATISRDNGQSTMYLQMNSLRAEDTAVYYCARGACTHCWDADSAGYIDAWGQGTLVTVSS
VL: B1 VL with Y2L, Y32H, L42T, N62S, N65S
Regarding B4, the binding result is on record as “binds”.

B5: 589-VH_3 + 589-VL_4 (antibody, V domains shown)
VH: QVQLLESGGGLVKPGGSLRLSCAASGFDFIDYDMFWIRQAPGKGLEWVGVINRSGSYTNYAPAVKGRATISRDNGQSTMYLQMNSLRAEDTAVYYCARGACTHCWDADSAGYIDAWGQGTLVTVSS
VL: B2 VL
For B5, the binding result was “binds”.

B6: 589-VH_3 + 589-VL_1 (antibody, V domains shown)
VH: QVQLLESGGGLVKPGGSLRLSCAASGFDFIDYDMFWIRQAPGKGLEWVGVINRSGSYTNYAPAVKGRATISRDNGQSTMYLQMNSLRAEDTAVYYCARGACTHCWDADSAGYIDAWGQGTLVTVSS
VL: B1 VL
For the molecule B6, the binding result is given as “binds”.

B7: 589-VH_1 + 589-VL_1 (antibody, V domains shown)
VH: B1 VH with D28T, I30S, G49S, A68F, M79L
VL: B1 VL
For the molecule B7, the binding result was “binds”.

B8: 589-VH_1 + 589-VL_2 (antibody, V domains shown)
VH: B1 VH with D28T, I30S, G49S, A68F, M79L
VL: B1 VL with Y2L, Y32H, L42T, N62S, N65S
With B8, the binding result was “binds”.

B9: 589-VH_1 + 589-VL_4 (antibody, V domains shown)
VH: B1 VH with D28T, I30S, G49S, A68F, M79L
VL: B2 VL
Turning to B9, the binding result was “binds”.

B10: 589-VH_2 + 589-VL_2 (antibody, V domains shown)
VH: B1 VH
VL: B1 VL with Y2L, Y32H, L42T, N62S, N65S
notes: also called SD-861408
As to B10, the binding result is on record as “binds”.

B11: 589-VH_5 + 589-VL_2 (antibody, V domains shown)
VH: B3 VH
VL: B1 VL with Y2L, Y32H, L42T, N62S, N65S
notes: parental VH with humanized VL
With B11, the binding result was “binds”.

Values taken from patent US20250019457A1 (IBIO, published 2025).
